Test results: patent US20240166768A1 (YEDA RESEARCH AND DEVELOPMENT, published 2024)

What follows are binders tested against BSA (bovine, UniProt P02769) (assay: ELISA heatmap, OD630).
Experimental: ELISA reactions were carried out using flat-bottom MaxiSorp™ 96-well plates (Invitrogen). Antigen coating was performed in PBS at 1001 per well and left overnight at 4° C. For standard dose response ELISA assays, antigens were plated at a concentration of 1 μg/ml. For comparative ELISA assays with multiple antigen targets, antigens were plated at a constant molar concentration of 50 nM. The plates were washed 5 times with washing buffer (1×PBS with 0.05% Tween-20 (Sigma-Aldrich)) and incubated with 1001 blocking buffer (1×PBS with 1% BSA) for 1 h at room temperature. The blocking solution was subsequently replaced by serial dilutions of either mono- or polyclonal antibodies or serum samples for 2.5 h at RT. For standard dose response ELISA assays, antibodies were introduced over a range of dilutions whereas for ELISA screens, antibodies were introduced at 100 nM. Serum samples were assayed at a dilution of 1:100. Plates were washed 5 times with washing buffer and then incubated with anti-human IgG secondary antibody conjugated to horseradish peroxidase (HRP) (Jackson Immuno Research) in PBS at a 1:5,000 dilution. After washing the plates for additional 5 times, the plates were developed using TMB (Thermo Fisher) and absorbance was measured at 630 nm with an ELISA microplate reader (Synergy HTX plate reader, Biotek).
Strikingly, in 3/4 patients, monoclonal antibodies that bound MMP14 with various degrees of effectiveness and specificity were detected, confirming the analysis using polyclonal patient-derived antibodies. In order to further examine the specificity of the monoclonal antibodies, the binding activity of the antibodies was tested in different dilutions by ELISA.

Sequence of BSA (P02769 25-607 limits assumed): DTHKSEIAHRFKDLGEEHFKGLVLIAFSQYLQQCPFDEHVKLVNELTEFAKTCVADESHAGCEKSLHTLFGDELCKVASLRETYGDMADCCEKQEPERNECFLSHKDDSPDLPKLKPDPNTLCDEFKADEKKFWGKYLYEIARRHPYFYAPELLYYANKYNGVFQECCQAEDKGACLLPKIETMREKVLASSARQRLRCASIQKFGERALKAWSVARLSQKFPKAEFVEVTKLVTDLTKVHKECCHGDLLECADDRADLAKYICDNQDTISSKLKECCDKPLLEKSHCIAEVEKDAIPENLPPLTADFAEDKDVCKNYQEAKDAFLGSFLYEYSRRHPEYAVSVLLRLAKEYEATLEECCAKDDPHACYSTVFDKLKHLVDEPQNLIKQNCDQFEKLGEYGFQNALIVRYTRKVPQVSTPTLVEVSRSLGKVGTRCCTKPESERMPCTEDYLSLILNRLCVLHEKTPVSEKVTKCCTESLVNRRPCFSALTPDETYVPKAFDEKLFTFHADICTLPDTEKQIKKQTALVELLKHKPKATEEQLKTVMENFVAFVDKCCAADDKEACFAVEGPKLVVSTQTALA

Binder | binding result
T1 (antibody, V domains shown) VH: EVQLVESGGGLEQPGRSLRLSCAASGFSFGDNAMTWFRQAPGKGLEWVGIIRAKGYGGTTEYAASVKGRFTISRDDSKSIAFLQMNNVKVEDTGVYYCAKYASGWEVGFDPWGQGTLVTVSS VL: AIQMTQSPSSLSASVGDRVTITCRASQFIRNDLGWYQQKPGRAPKLLIYAASGLHSGVPARFSGNGSATDFTLTITSLQPEDFATYYCLQDYNFPWTFGQGTKVEIK | no binding (tested: 100 nM)
T17 (antibody, V domains shown) VH: EVQLVESGGGLVQPGGSLTLSCTASGFTYFGFAMTWVRQPPGKGLEWISSINLLSGTTYYVDSVKGRFTISRDNSKNTVFLQMKGLTAEDTAVYYCAKVGATQDLHYFDFWGQGTLVTVSS VL: DIQMTQSPSTLSASVGDRVTITCRASQSVYRWLAWYQQKPGEAPKLLVYGAFSLQSGVPPRFSGSGYGTEFTLTISSLQPDDFATYYCQQYNSHSTFGQGTKVEVK | no binding (tested: 100 nM)
T6 (antibody, V domains shown) VH: QVQLQQSGPGLVKPSQTLSLTCAISGDSVSSNSAAWNWIRQSPSRGLEWLGRTYYRSRWYSDYAFSVRSRIIVKADTSRNLFSLQLNSMTPEDTAIYYCARDLGIAAADWFDSWGQGTLVTVSS VL: EIVMTQSPATLSVSPGDRATLSCRASQSVSNRLAWYQQKPGQAPRLLIYDASTRATDIPARFSGSGSGTEFTLTISSLQSEDFAIYFCHQYHNWPGFGPGTKLEIK | no binding (tested: 100 nM)
T20 (antibody, V domains shown) VH: QVQLQESGPGLLKPSQTLSLTCTVSGAFLNSGGYYWTWIRQHPGKGLEWIGYIYYSGTTYYNPSLKSRVTISVDTSKNQFSLNVNSVIAADTAVYYCARAPRIPFGEVIGGAAFDVWGQGTTVIVSS VL: EIVLTQSPGTLSLSPGERATLSCRASQSVTSNFVGWYQQKPGQAPRLLIYAASSRPTGIPERFSGSGSGTDFTLTISRLEPEDFAVYYCEQYGSSPRTFGPGTKVEIK | no binding (tested: 100 nM)
T21 (antibody, V domains shown) VH: QVQLQESGPGLVKPSQTLSLTCTVSGGSFSNSNYYWSWIRQPAGKGLEWIGHIYASAITHYNPSLKSRVTISKDTSKNQFSLNLRSVTAADTAVYFCARGFRLAAEAYYHGMDVWGQGTTVTVSS VL: DIQMTQSPSSLSASVGDRVTITCRASQSINNFLNWYQQKPGKAPKLLIYGASSLQSGVPSRFSASGSGTDFSLTISGLIPEDFAIYYCQQSDTTPWTFGQGTKVDIK | no binding (tested: 100 nM)
T14 (antibody, human IgG1, V domains shown) VH: EVQLVESGGGLVQPGGSLRLSCAVSGFTFNNYWMTWVRQAPGKGLEWVANIKGDGSEKTYVDSVKGRFTVSRDNANNSLHLQMKSLRAEDTAVYYCARVGGGDYYDSSGYYWLDTWGQGTLVTVSS VL: not shown | no binding (tested: 100 nM)
T4 (antibody, V domains shown) VH: QVQLVQSGGEVKKPGASAKVSCKTSGFTFTSYGISWVRQAPGQGLEWMGWINTYNGNTKYAQRLQGRVSMTTDTSTNTAYMELRSLRSDDTAVYYCARGQGRYGDYIYNHWGQGTLVIVSS VL: DIQMTQSPSTLSASVGDRVTITCRASQIISSWVAWYQQRPGKAPKLLIFDASILESGVPSRFSGSATGTEFSLTISGLQPDDFATYYCQHYNDFPLSFGGGTKVEIK | no binding (tested: 100 nM)
T29 (antibody, V domains shown) VH: QLQLQESGPGLVKPSETLSLTCTVSGGSISSSSYYWGWIRQPPGKGLEWIGSLSYTGSTYYNPSLKSRVTISLDTSKNQFSLKLSSVTAADTAVYYCARESGSGGTHTDSWGQGTLVSVSS VL: QSVLTQPPSVSAAPGQKVTISCSGSSSNIGNNYVSWYQQLPGTAPKLLIYDNNKRPSGIPDRFSGSKSGTSATLGISGLQTGDEADYYCGTWDSSLSAWVFGGGTKLTVL | no binding (tested: 100 nM)
T22 (antibody, V domains shown) VH: QVQLVQSGAEVKKPGSSVKVACKASGGTFSRSAISWVRQAPGQGLEWMGGIIRIFNTADYAQKFQGRVTMSADESTSTAYMELSSLRSEDTAVYYCATSSLSDIVVAEGAFVDHYFGMDVWGQGTTVTVSS VL: not shown | no binding (tested: 100 nM)
T19 (antibody, V domains shown) VH: EVQLLESGGGLVQPGGSLRLSCAASGFTFDNYGMSWVRQAPGKGLEWVSVISSGGVGTYYADSVKGRFIISRDNAKNTLYLQMNSLRAEDTAVYYCAKDLLRYESSGYSPWGQGTLVTVSS VL: EIVLTQSPATLSLSPGDRATLSCRASQSVNTYLAWYQHKPGQAPRLLIYDASKRATGIPARFSGSGSGTDFTLTISSLEPEDFAVYYCQQRANRPPLTFGGGTKVEIK | no binding (tested: 100 nM)
T18 (antibody, V domains shown) VH: EVQLVESGGGLVQPGGSLRLSCAASGFTFSSYWMTWVRQAPGKGLEWVANIKPDGSEKNYVDSVKGRFTISRDNAENSLYLQMNSLRAEDTAVFYCARDLRYCSSTSCSPALDYWGQGTLLTVSS VL: DIQMTQSPSSLSASVGDRVTITCRASQSIASYLNWYQQKPGRAPKLLIYAASTSGVPSRFSGSGSGTDFTLTISSLQPEDFATYYCQQSYTTPRTFGQGTKVEIK | no binding (tested: 100 nM)
T15 (antibody, human IgG1, V domains shown) VH: EVQLVESGGGLVQPGGSLRLSCAASGFTFNNYWMTWVRQAPGKGLEWVANVNQDGNEKNYVDSVRGRFTISRDNAKNSLHLQMKSLISDDTAVYYCARVGGGDYYDSSGYYWFDTWGQGALVTVSS VL: not shown | no binding (tested: 100 nM)
T28 (antibody, V domains shown) VH: QVQLQESGPGLVKPSETLSLSCAVSGGSIRGYSWSWIRQPPGKGLEWIADMLYTGTTTFNPSLKSRVTISVDTSKNQFSLKLTSVTAADTAVYYCARGPTVSGPIVVDYWGPGTLVTVSS VL: NFMLTQPHSVSESPGKTVTISCTGSSGSIASNYVQWYQQRPGSAPTTLIYEDKQRPSGVPDRFSGSIDSSTNSASLTISGLKTEDEADYYCQSFDSSNRWVFGGGTKVTVL | no binding (tested: 100 nM)
T25 (antibody, V domains shown) VH: EVQLVESGGGLVKPGGSLRLSCAPSGFIFSNTWMSWVRQAPGKGLEWVGHIKSKADGGTTDYAAPVKGRFTISRDDSRNTLYLQMDSLKTEDTGVYYCTTGWYSTLDYWGQGTLVTVSS VL: QSVLTQPPSASGTPGQRVTISCSGSTSNVGTNYVYWCQQFPGAAPKLLMYRNDRRPSGVPDRFSGSKSGTSASLAISGLRSEDEADYYCAAWDDSLSSWVFGGGTKLTVL | no binding (tested: 100 nM)
T2 (antibody, V domains shown) VH: QVQLVQSGAEVKKPGASVNVSCKASGYNFKAYGVGWVRQAPGQGLEWMGWITPYNGKTNYAQKIQGRVTMTTDTSTTTAYMELRSLQPDDTAMYFCARTPAALASFDYWSQGTLVTVSS VL: DIQMTQSPSTLSASVGDRVTITCRASQSISSWLAWYQQKAGKAPKLLIFDASTLQSGVPSRFSGSGSGTEFSLTISSLQPDDFATYYCQQYYSYSTFGQGTKVEIR | no binding (tested: 100 nM)
T24 (antibody, V domains shown) VH: QLQLQESGSGLVKPSQTLSLTCAVSGGSISSSDYSWSWIRQPPGKGLEWIGYIYHSGNTYYNPSVKSRVTISLDSSKNHFSLTLTSVTAADTAIYYCARDPGGNSGWFDPWGQGALVTVSS VL: SYELTQPTSVSVSPGQTARITCSGDALPSQYAYWYQQKPGQAPILIIYKDNKRPSGIPERFSGSSSGTRVTLTISGVQPEDEADYYCQSADRSGRYVFGTGTRVPVL | no binding (tested: 100 nM)
T5 (antibody, V domains shown) VH: QVQLVESGGGVVQPGRSLRLSCAASGFTFSSHAMHWVRQAPGKGLQWVALISYDGYNKYYAESVQGRFTLSRDNSKNTLYLQMNSLRAEDTAVYYCARDRDSSGYIFDYWGQGTLVTVSS VL: DIQMTQSPSSLSASVGDRVTITCQASQDISNYLNWYQQKPGKAPKVLIYDASNLERGVPSRFSGSGSGTAFTFTISSLQPEDIATYYCQQYDNLPSFGGGTKVEIK | no binding (tested: 100 nM)
T26 (antibody, V domains shown) VH: QVQLVQSGSEVKKPGASVKVSCKASGYTFTSNGISWVRQAPGQGLEWMGWISAYNGNTNYAQKFQGRVSLTTDTSTSTAYMELRNLTSDDTARYYCARSRGHYGDYLYGYWGQGTLVTVSS VL: QSVLTQPPSVSGAPGQRVTISCTGSSSNIGAGYDVHWYQQLPGTAPKLLIHGNSNRPSGVPDRFSGSKSGTSASLAITGLQAEDEADYYCQSFDSSLSGSVVFGGGTKLTVL | no binding (tested: 100 nM)

These binders were tested against T1, ROI-1 peptide of MMP14 (I-A loop) (assay: peptide validation ELISA: antibody plated, biotinylated peptide titrated, streptavidin-HRP; the concentration is that of the peptide).
T1 construct: also called 'ROI-peptide'; 'Peptide (ROI)'

Binder | EC50 (read off the curve) [ng/mL]
T13 (antibody, V domains shown, The digit 1 is dropped in many places of the text; also called mAb T13) VH: EVQLVESGGGLVQPGGSLRLSCAASGFIFSKHDMYWVRQRPGKGLEWVSRIGDAGDTYYAGSVKGRFTIFRENAKNTLYFQMNRLTDGDTAVYYCGRGMAVAGFPLDVWGRGTRVTVTS VL: EIVMTQSPATLSVSPGERATLSCRASQNIHINLAWYQQKPGQAPRLIIYAASTRAAGIPARFSASGSGTEFTLTISSLQSEDFAVYYCQQFNPWSPWTFGQGTKVEVK | ~2000
